The source of these data is publication PMC12448354.

Test [1] deals with Monodelphis domestica von Willebrand factor (VWF), purified from plasma (Monodelphis domestica).
Test [2] deals with human von Willebrand factor (VWF) (human) (UniProt P04275).

“botrocetin from Bothrops jararaca (purified venom fraction) (complex)”: the reduction in the overall extent of platelet adhesion to collagen under flow (60 dyn/cm^2), opossum PRP with 4 ug/mL botrocetin, against the control without venom protein in test [1] was 39%. The reduction in the overall extent of platelet adhesion to collagen under flow (60 dyn/cm^2), human PRP with 4 ug/mL botrocetin, against the control without venom protein in test [2] was determined as 66%.
